What is called Kd is the free concentration of one partner at which half of the binding sites on the other are occupied at equilibrium, for simple one-to-one binding. Read a high Kd as lower affinity. In general, koff refers to the first-order rate constant of dissociation. A lower koff goes with a long-lived complex. Broadly, the kon is the second-order rate constant of association. A higher kon goes with fast association.

Data on 4 molecules can be found in patent US20150329642A1 (Genmab, published 2015).

Test [1] has as its target T1, cMetECDHis (human, UniProt P08581 25-932, limits assumed, biotinylated in the cross-block ELISA of Example 17).
T1 construct: Expressed in HEK-293F cells; also called soluble cMetECDHis; biotinylated cMetECDHis
Put plainly: cross-block ELISA; competitor 101. As for the experimental part: (§1) First, the optimal coating concentrations of the tested anti-c-Met antibodies and the optimal cMetECDHis concentration were determined. Therefore, ELISA wells were coated overnight at 4° C. with anti-c-Met HuMabs serially diluted in PBS (8 μg/mL in 2-fold dilutions). Next, the ELISA wells were washed with PBST (PBS supplemented with 0.05% Tween-20 [Sigma-Aldrich, Zwijndrecht, The Netherlands]) and blocked for one hour at room temperature (RT) with PBSTC (PBST supplemented 2% [v/v] chicken serum [Gibco, Paisley, Scotland]). Subsequently, the ELISA wells were washed with PBST and incubated for one hour at RT with biotinylated cMetECDHis serially diluted in PBSTC (1 μg/mL in 2-fold dilutions). Unbound biotinylated cMetECDHis was washed away with PBST, and bound biotinylated cMetECDHis was incubated for one hour at RT with 0.1 μg/mL Streptavidin-poly-HRP (Sanquin, Amsterdam, The Netherlands) diluted in PBST.
(§2) ELISA wells were coated with anti-c-Met antibody at a sub-optimal dose as described above. After blocking of the ELISA wells, they were incubated with the predetermined concentration of biotinylated cMetECDHis in the presence of an excess of anti-c-Met antibody. The reaction was developed as described above. Residual binding was expressed as a percentage relative to the binding observed in the absence of competitor antibody.
(In general: In an ELISA, binding on a coated surface is turned into a signal by an enzyme label.)

Test [2] addresses T1, cMetECDHis. Kind of test: cross-block ELISA; competitor 024. As for the experimental part: as §1, §2
Test [3] has as its target T1, cMetECDHis. Put plainly: cross-block ELISA; competitor 062. As for the experimental part: as §1, §2
Test [4] addresses T1, cMetECDHis. Kind of test: cross-block ELISA; competitor 058. Here is the method: as §1, §2
Test [5] concerns the target T1, cMetECDHis. Put plainly: cross-block ELISA; competitor 069. Here is the method: as §1, §2
For test [6], the target named is T1, cMetECDHis. Put plainly: cross-block ELISA; competitor 005. As for the experimental part:
as §1, §2

In test [7] the target is T1, cMetECDHis. Put plainly: BLI (Octet); antibody captured, cMetECDHis in solution. As for the experimental part: Antibody binding to cMetECDHis was analyzed by means of Bio-Layer Interferometry (BLI) technology on the Octet System (Fortebio, Menlo Park, USA). Anti-human IgG coated biosensors (Fc-specific) were used to capture anti-c-Met antibodies according to the procedure recommended by the manufacturer. cMetECDHis derived from HEK293 cells was loaded on top of the immobilized anti-c-Met antibodies by placing the loaded biosensor into a well containing 10 μg/mL cMetECDHis diluted in 10 times diluted kinetics buffer (Fortebio). The difference in reflection of light (AA, nm) of the biosensor surface due to the binding of cMetECDHis was measured in real time during approximately 10 minutes and was used by the Octet software (V4.0, Fortebio) to calculate the association constant (kₐ [1/M×s]). Next, the loaded biosensor was placed into a well containing only kinetics buffer (10 times diluted in PBS) to determine the dissociation constant (kd [1/s]). Kinetics analysis was performed to determine the affinity (KD [M]) using model 1:1 (langmuir). As a positive control, 0.2 μg/mL 5D5 IgG1 produced in HEK293 cells, was used.
In general terms: BLI is a label-free optical method that tracks binding on a fibre tip over time.

The target in test [8] is T1, cMetECDHis. Kind of test: cross-block ELISA; competitor 045. Here is the method: as §1, §2
Test [9] addresses T1, cMetECDHis. Kind of test: cross-block ELISA; competitor 022. As for the experimental part:
as §1, §2

Test [10] has as its target T1, cMetECDHis. Kind of test: cross-block ELISA; competitor 035. Here is the method: as §1, §2
For test [11], the target named is T1, cMetECDHis. Kind of test: cross-block ELISA; competitor 006. Here is the method:
as §1, §2

Test [12] deals with T1, cMetECDHis. Put plainly: cross-block ELISA; competitor 008. As for the experimental part: as §1, §2
Test [13] concerns the target T1, cMetECDHis. Put plainly: cross-block ELISA; competitor 064. Here is the method:
as §1, §2

Test [14] concerns the target T1, cMetECDHis. Kind of test: cross-block ELISA; competitor 068. Here is the method:
as §1, §2

Test [15] addresses T1, cMetECDHis. Kind of test: cross-block ELISA; competitor 098. Here is the method:
as §1, §2

For test [16], the target named is T1, cMetECDHis. Kind of test: cross-block ELISA; competitor G11-HZ. As for the experimental part: as §1, §2
The target in test [17] is T1, cMetECDHis. Kind of test: cross-block ELISA; competitor 5D5. Here is the method: as §1, §2

B1: anti-c-Met HuMab 035 (IgG1) (antibody, V domains shown)
VH: EVQLVQSGAEVKKPGESLKISCKGSGYSFTSYWIGWVRQMPGKGLEWMGIIYPGDSDTRYSPSFQGQVTISADKSISTAYLQWNSLKASDTAMYYCARQEITGEFDYWGQGTLVTVSS
VL: AIQLTQSPSSLSASVGDRVTITCRASQGISSALAWYQQKPGKAPKLLIYDASSLESGVPSRFSGSGSGTDFTLTISSLQPEDFATYYCQQFNSYPMYTFGQGTKLEIK
notes: also called P1016-035; TH1016-035-D09
Consider B1, for which the “residual binding, % of no competitor” value was 113% with cMetECDHis [1]; 121% with cMetECDHis [2]; 120% in the test with cMetECDHis [3]; 18.5% in the test with cMetECDHis [4]; 151% with cMetECDHis [5]; 36.7% in the test with cMetECDHis [6]. Further, the “residual binding, % of no competitor” value with cMetECDHis [8] was found to be 125%; with cMetECDHis [9], 54.6%; with cMetECDHis [10] it was 10.6%; with cMetECDHis [11], 33%; in the test with cMetECDHis [12], 7.2%; with cMetECDHis [13], 132%. Further, the “residual binding, % of no competitor” value was found to be 175% with cMetECDHis [14], 126% with cMetECDHis [15], 7.8% in the test with cMetECDHis [16] and 25.5% with cMetECDHis [17]. Moreover, in the test with cMetECDHis [7], the Kd is 13.9 nM. In addition, in the test with cMetECDHis [7], the koff was 0.00368 s⁻¹. In the test with cMetECDHis [7], this molecule displayed a kon of 264000 M⁻¹ s⁻¹.

B2: IgG1-024 (antibody, V domains shown)
VH: EVQLLESGGGLVQPGGSLRLSCVASGFTFSSYAMSWVRQAPGKGLEWVSAISGSSGGSTYYVDSVKGRFTISRANSKNTLYLQMNSLRAEDTAVYYCAKDLDRGWMGYFGYWGQGTLVTVSS
VL: DIQMTQSPSSVSASVGDRVTITCRASQGISSWLAWYQHKPGKAPKLLIYAASSLQSGVPSRFSGSGSGTDFTLTISSLQPEDFATYYCQQANSFPTFGQGTRLEIK
notes: also called TH1016-024; PC1016-024
With B2, the “residual binding, % of no competitor” value is 4.8% with cMetECDHis [1]; 5.4% with cMetECDHis [2]; 2.3% with cMetECDHis [3]; 103% in the test with cMetECDHis [4]; 2.9% with cMetECDHis [5]; 98.4% with cMetECDHis [6]. In addition, the “residual binding, % of no competitor” value in the test with cMetECDHis [8] amounted to 98.1%; in the test with cMetECDHis [9], 100%; in the test with cMetECDHis [10], 108%; with cMetECDHis [11], 101%; in the test with cMetECDHis [12] it was 104%; with cMetECDHis [13], 2.3%. For the same molecule, the “residual binding, % of no competitor” value was found to be 12% with cMetECDHis [14], 10.4% with cMetECDHis [15], 98.2% with cMetECDHis [16] and 95.5% in the test with cMetECDHis [17]. Also, in the test with cMetECDHis [7], the affinity, expressed as Kd, was 1.57 nM. In the test with cMetECDHis [7], the koff stood at 0.000228 s⁻¹. The kon with cMetECDHis [7] amounted to 145000 M⁻¹ s⁻¹.

B3: anti-c-Met HuMab 045 (IgG1) (antibody, V domains shown)
VH: EVQLLESGGGLVQPGGSLRLSCAASGFTFSSYAMSWVRQAPGKGLEWVSVISGSGGITYYADSVKGRFTISRDNSKNTLYLQMNSLRAEDTAVYYCARDRGWGSDYWGQGTLVTVSS
VL: EIVLTQSPATLSLSPGERATLSCRASQSVSSYLAWYQQKPGQAPRLLIYDASNRATGIPARFSGSGSGTDFTLTISSLEPEDFAVYYCQQRSNWPFTFGPGTKVDIK
notes: also called TH1016-045; PC1016-045
In the case of B3, the “residual binding, % of no competitor” value with cMetECDHis [1] stood at 102%; in the test with cMetECDHis [2], 102%; in the test with cMetECDHis [3] it was 103%; with cMetECDHis [4] it was 115%; with cMetECDHis [5], 97%; with cMetECDHis [6] it was 111%. The “residual binding, % of no competitor” value with cMetECDHis [8] amounted to 21.3%; with cMetECDHis [9], 105%; with cMetECDHis [10], 105%; in the test with cMetECDHis [11], 111%; with cMetECDHis [12], 98.5%; with cMetECDHis [13], 104%. Moreover, the “residual binding, % of no competitor” value with cMetECDHis [14] is 113%; with cMetECDHis [15] it was 76.4%; with cMetECDHis [16] it was 99.3%; with cMetECDHis [17], 27.8%. This molecule also had a Kd with cMetECDHis [7] of 2.87 nM. This molecule gave a koff in the test with cMetECDHis [7] of 0.00207 s⁻¹. The molecule further came in with a kon with cMetECDHis [7] of 721000 M⁻¹ s⁻¹.

B4: IgG1-1016-069 (antibody, V domains shown)
VH: QVQLVQSGAEVKKPGASVKVSCETSGYTFTSYGISWVRQAPGHGLEWMGWISAYNGYTNYAQKLQGRVTMTTDTSTSTAYMELRSLRSDDTAVYYCARDLRGTNYFDYWGQGTLVTVSS
VL: DIQMTQSPSSVSASVGDRVTITCRASQGISNWLAWFQHKPGKAPKLLIYAASSLLSGVPSRFSGSGSGTDFTLTISSLQPEDFATYYCQQANSFPITFGQGTRLEIK
notes: also called clone 069; TH1016-069
On to B4, for which the “residual binding, % of no competitor” value came to 3.9% in the test with cMetECDHis [1]; 6.6% with cMetECDHis [2]; 2.2% with cMetECDHis [3]; 101% with cMetECDHis [4]; 2.4% in the test with cMetECDHis [5]; 102% with cMetECDHis [6]. Moreover, the “residual binding, % of no competitor” value with cMetECDHis [8] worked out at 99.8%; with cMetECDHis [9], 97.8%; with cMetECDHis [10], 91.7%; with cMetECDHis [11], 100%; in the test with cMetECDHis [12], 102%; in the test with cMetECDHis [13], 2.3%. Moreover, the “residual binding, % of no competitor” value is 10.1% in the test with cMetECDHis [14], 12.5% with cMetECDHis [15], 110% with cMetECDHis [16] and 99.4% with cMetECDHis [17]. In the test with cMetECDHis [7], the affinity, expressed as Kd, was 1.26 nM. The koff in the test with cMetECDHis [7] came to 0.000267 s⁻¹. The same molecule yielded a kon in the test with cMetECDHis [7] of 212000 M⁻¹ s⁻¹.
